From patent publication US20060142546A1, “Immunogenic muc1 glycopeptides” (priority 2002, published 2006)
Each block holds one molecule with its values, some of them ahead of it. Where a SMILES comes first, the peptide text is derived from it. Where no end group is shown, it is not given here. The star is where a group is joined. Cbz = O=C(OCc1ccccc1)*; CH2F = FC*

Assays:
[1] = tested on: Cathepsin L-like activity in low-density endosomes from mouse dendritic cells; experiment: Proteolysis of TAP25 by low-density endosomal fractions from mouse dendritic cells; format: biochemical; settings: 1 μM inhibitor, TAP25 as substrate
Method: Mouse dendritic cells (10^8) were homogenized by fine-needle aspiration on ice using 1 ml of 0.3 M sucrose, 0.01 M Hepes as buffer (without protease inhibitors). After dilution to 7 ml and centrifugation at 850 g for 10 min to remove intact cells and nuclei, 6 ml of the supernatant were centrifuged over 24 ml of 30% Percoll with 0.3 M sucrose, 0.01 M Hepes for 105 min at 20.000 rpm in a centrifuge (model J2-21 M/E, rotor: JA-20, Beckman instruments, München, Germany) (Barnes et al., J. Exp. Med. 181 (1995), 1715-1727). The gradient was fractionated by gravity siphon (30×1 ml) and each fraction was analysed after sonication for the presence of MHC class II molecules by enzyme immunoassay with anti-H2 antibody (rat hybridoma cell line M1/42.3.9.8.HLK obtained from the ATCC), β-hexosamimidase activity (Barnes et al., 1995) and cathepsin L related proteolytic activity using TAP25 peptide as substrate (5 μg). The samples were incubated for 24 h at 37° C., diluted 20 fold in aqueous TFA and analysed by MALDI mass spectrometry. For specific inhibition of cathepsin L activity, the corresponding fractions were mixed with 1 μM Z-Leu-Leu-Leu-fluoromethyl ketone (Sigma).

human cathepsin L = molecular target: T1, human cathepsin L (Homo sapiens, UniProt P07711); experiment: In vitro proteolysis of native MUC1 and MUC1 (glyco)peptides with human cathepsin L; format: biochemical; settings: for proteolysis by cathepsin L: 3 h or 24 h
T1 construct: in the cathepsin L preparation from human liver; purchased Sigma (München, Germany); host or cells: human liver
T1 sequence (P07711 114-288 limits assumed): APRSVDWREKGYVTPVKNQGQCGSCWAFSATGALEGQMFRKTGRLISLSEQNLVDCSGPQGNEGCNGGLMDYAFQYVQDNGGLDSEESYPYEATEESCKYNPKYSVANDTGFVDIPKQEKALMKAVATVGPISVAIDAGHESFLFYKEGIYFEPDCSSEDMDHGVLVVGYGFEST
T1 sequence (P07711 292-333 limits assumed): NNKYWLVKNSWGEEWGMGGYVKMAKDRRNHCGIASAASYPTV
Method: FIG. 4: In vitro proteolysis of MUC1 glycopeptide A3 by human cathepsin L. N-terminally free or biotinylated MUC1 glycopeptide A3 (10 μg) were treated for 3 h with 1 milliunit of cathepsin L in the presence or absence of the cathepsin L/B-specific cysteine protease inhibitor Z-Leu-Leu-Leu-fluoromethyl ketone (1 μM) using 0.1M sodium acetate, pH 5.5, containing 1 mM EDTA, and 1 mM DTT as reaction buffer.
Human cathepsins L and D were purchased from Sigma (München, Germany) and solubilized in 0.1 M sodium acetate buffer, pH 5.5, containing 1 mM EDTA (cathepsin D) and 1 mM dithiotreitol (cathepsin L). 2-5 units of enzyme(s) were added to 100 μg of mucin or recombinant fusion protein or to 10 μg of (glyco)peptide substrates in a total volume of 20 μl digestion buffer (see above). The reaction mixtures were incubated at 37° C. and 2 μl were withdrawn after 3 h or 24 h and diluted 20 fold in 0.1% aqueous TFA prior to MALDI mass spectrometry. In case of native MUC1 samples with complex O-glycosylation (MUC1 from tumor ascites, HMFG-MUC1, partially deglycosylated HMFG-MUC1, and MFP6 fusion protein) the digest was desalted by solid-phase extraction (ZipTip C18) and the (glyco)peptides were deglycosylated by β-elimination/ethylaminylation in 70% ethylamine at 50° C. as previously described (Müller and Hanisch, J. Biol. Chem. 277 (2002), 26103-26112). Each glycosylated position in the peptide fragments corresponds to the addition of a 27 u mass increment.

[2] = tested on: human immature dendritic cells; experiment: Processing of MUC1 antigen by human monocyte-derived dendritic cells (antigen pulse, MALDI/LC-MS of fragments); format: cell-based; settings: cellular lysate or culture supernatant, mass range up to 8 kDa
Method: Human immature DCs were pulsed with native, N-terminally unmodified, soluble antigens, while the mature mouse DCs had to be fed with particulate antigen to reach sufficient antigen load. […] Simultaneously, the maturation process of the cells was induced by addition of 20 ng/ml tumor necrosis factor (TNF-α; Sigma-Aldrich, Munich, Germany) and 10 μg/ml of anti-CD40 antibody (Pharmingen, San Diego, Calif.). The cells were finally separated from medium by centrifugation, washed in PBS and both fractions were analysed for the presence of peptide/glycopeptide fragments according to the protocol described below.
The human or mouse dendritic cell fractions were treated on ice for 15 min with 100 μl 1% NP40, 10 mM Tris-HCl, 150 mM NaCl, pH 8.0 containing a cocktail of protease inhibitors (Sigma P8340, München, Germany) followed by ultrasonication for 2 min. […] To avoid selection of product subfractions by affinity-isolation, in most experiments the peptides were enriched by solid-phase extraction on reversed-phase columns.
Peptides and glycopeptides contained in the cell-free supernatants were affinity-isolated by solid-phase extraction on reversed-phase supports (100 μg polysphere C18, 50 μl Poros C18). […]

inhibition of catalytic activity directed to the Thr-Ser bond (human cathepsin L; inhibitor 1 μM, substrate glycopeptide A3): specifically inhibited
Molecule: CC(C)C[C@H](NC(=O)[C@H](CC(C)C)NC(=O)[C@H](CC(C)C)NC(=O)OCc1ccccc1)C(=O)CF [Z-Leu-Leu-Leu-fluoromethyl ketone, reference compound] (Cbz-Leu-Leu-Leu-CH2F)
inhibition of cysteine protease in low density endosomes [1]: inhibitable

proteolysis by cathepsin L (human cathepsin L; pH 5.5, 1 mM DTT, 37° C.): not digested
Molecule: Asc-MUC1: MUC1 from pooled human tumor ascites
fragmentation of antigen [2]: No fragmentation

proteolysis by cathepsin L (human cathepsin L; pH 5.5, 1 mM DTT, 37° C.): not digested
Molecule: HMFG-MUC1: mucin from human milk fat globule membranes

More lines, now with the values behind:

Molecule: GST20-AES (GSTAPAAHGVTSAPESRPAP; also: glycosylated, sites not given here)
structural assignment of product (human cathepsin L; Table 2, 3 h, 37° C., pH 5.5): SAP9 | Average mass of production (mass range 500-4500 Da) (human cathepsin L; Table 2, synthetic monomeric repeat peptides, N-terminally unmodified, 3 h, 37° C., pH 5.5, 1 mM DTT): 910.8 Da | cleavage (human cathepsin L; standard conditions for cysteine proteases, incubation 3 h): 80%

Molecule: GalNAc-MUC1: partially deglycosylated HMFG-MUC1
structural assignment of repeat fragment ion (human cathepsin L; Table 3, native mucin, after de-O-glycosylation/ethylaminylation): GVT20 + 1-4 HexNAc | proteolysis by cathepsin L (human cathepsin L; pH 5.5, 1 mM DTT, 37° C.): fragmentation by cathepsin L at low efficiency

Molecule: AHGVTSAPESRPAPGSTAPAA (not fully specified (residue 5); also: GalNAc glycan at Thr5 (H4), Ser10 (H5) or Thr17 (H6), which one is not fixed for this name, biotinylated)
proteolysis by cathepsin L (human cathepsin L; pH 5.5, 1 mM DTT, 37° C.): stable to proteolysis
